In assay [1] the target is BG505 DS-SOSIP.664 (gp140 trimer) (HIV (BG505)) (UniProt Q2N0S6). Kind of assay: SPR. (In SPR one partner is held on a chip, and binding of the other changes the refractive index at the surface.)
The target of assay [2] is human FcRn receptor (neonatal Fc receptor) (human) (UniProt P55899). Kind of assay: SPR.

pKd: −log10 of the molar value.

By koff is commonly meant a measure of how fast the partners let go of each other. Read a high koff as fast dissociation. The kon is the second-order rate constant of association. By pKd is commonly meant −log10 of the Kd, conventionally taken in molar units.

Chain of griffithsin (GRFT) (P84801 whole entry): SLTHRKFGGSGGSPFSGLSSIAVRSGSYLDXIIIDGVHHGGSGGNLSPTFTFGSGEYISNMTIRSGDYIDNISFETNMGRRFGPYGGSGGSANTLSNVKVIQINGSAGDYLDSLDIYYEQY

In assay [1], “griffithsin (GRFT) (from UniProt P84801 1-121) (natural protein)” registered an off-rate constant (koff) of 0.0136 s⁻¹ and a kon of 1.42e+07 M⁻¹ s⁻¹.

The substance “VRC01 (standard anti-HIV broadly neutralizing antibody)” showed a pKd in assay [2] of 7.11.
